Values of other authors, collected in PMC4540356 (Thrombosis and haemostasis, 2010).

Test system: endothelial cells
Details: via activation of ERK1/2 and Akt, ref [39]

B1: nicotinomide phosphoribosyltransferase/pre-B cell colony-enhancing factor (protein, UniProt P43490 1-491, looked up)
Nicotinamide …: MNPAAEAEFNILLATDSYKVTHYKQYPPNTSKVYSYFECREKKTENSKLRKVKYEETVFYGLQYILNKYLKGKVVTKEKIQEAKDVYKEHFQDDVFNEKGWNYILEKYDGHLPIEIKAVPEGFVIPRGNVLFTVENTDPECYWLTNWIETILVQSWYPITVATNSREQKKILAKYLLETSGNLDGLEYKLHDFGYRGVSSQETAGIGASAHLVNFKGTDTVAGLALIKKYYGTKDPVPGYSVPAAEHSTITAWGKDHEKDAFEHIVTQFSSVPVSVVSDSYDIYNACEKIWGEDLRHLIVSRSTQAPLIIRPDSGNPLDTVLKVLEILGKKFPVTENSKGYKLLPPYLRVIQGDGVDINTLQEIVEGMKQKMWSIENIAFGSGGGLLQKLTRDLLNCSFKCSYVVTNGLGINVFKDPVADPNKRSKKGRLSLHRTPAGNFVTLEEGKGDLEEYGQDLLHTVFKNGKVTKSYSFDEIRKNAQLNIELEAAHH
- peNOS and NO induction in endothelial cells: induce peNOS and NO in endothelial cells
